The experiment deals with T1, recombinant human ASM protein (human, UniProt P17405 47-630).
T1 construct: Recombinant human ASM in solution; also called acid sphingomyelinase (ASM) protein
T1 sequence: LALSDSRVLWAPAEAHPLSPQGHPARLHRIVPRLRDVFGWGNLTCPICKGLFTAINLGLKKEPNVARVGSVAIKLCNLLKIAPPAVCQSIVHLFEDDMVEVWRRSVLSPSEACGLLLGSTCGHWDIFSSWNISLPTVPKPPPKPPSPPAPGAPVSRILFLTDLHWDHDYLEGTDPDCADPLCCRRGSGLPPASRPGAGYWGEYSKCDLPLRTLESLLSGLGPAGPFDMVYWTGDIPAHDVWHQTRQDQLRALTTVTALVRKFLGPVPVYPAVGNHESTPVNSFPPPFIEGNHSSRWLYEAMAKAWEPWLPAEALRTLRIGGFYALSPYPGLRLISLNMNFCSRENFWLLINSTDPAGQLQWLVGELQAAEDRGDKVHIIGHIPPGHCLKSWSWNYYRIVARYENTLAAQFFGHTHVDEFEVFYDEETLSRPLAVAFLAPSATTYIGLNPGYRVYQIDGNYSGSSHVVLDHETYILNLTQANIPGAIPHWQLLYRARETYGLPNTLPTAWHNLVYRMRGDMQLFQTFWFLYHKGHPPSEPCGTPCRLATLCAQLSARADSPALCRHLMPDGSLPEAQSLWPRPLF
The experiment is described as follows: BLI (Octet), antibody on AHC sensor. Here is the method: The binding affinity, to the ASM protein, of the produced antibodies specifically binding to the ASM protein and the interactive dynamics therebetween were measured using an Octet® QK384 system (Pall Life Sciences).
First, an antibody specifically binding to the ASM protein produced in Example 1 was captured using an anti-human IgG Fc capture (AHC) biosensor, and 1.25, 2.5, 5, 10, or 20 nM recombinant human ASM protein solution was added thereto. […] The association constant (Kₐ), dissociation constant (Kd), and equilibrium dissociation constant (KD) for each antibody were determined using Octet® analysis software (Pall Life® Sciences). As a result, the binding affinities, to the human ASM protein, of the antibodies with mutations in the heavy chain CDR regions of the antibody #9104 as depicted in Table 1 are shown in Table 5, and the binding affinities, to the human ASM protein, of the antibodies with mutations of the light chain CDR regions in the antibody #9104 as depicted in Table 2 are shown in Table 6.

Results on 16 molecules are retold here after patent US20260201064A1 (ISU ABXIS, published 2026).

B1: #9104v-L20 (antibody, human IgG4 S228P, lambda, V domains shown)
VH: EVQLLESGGGLVQPGGSLRLSCAASGFTFSNYYMSWVRQAPGKGLEWVSGIYYGSGNIYYADSVKGRFTISRDNSKNTLYLQMNSLRAEDTAVYYCARDTPGFDYWGQGTLVTVSS
VL: QSVLTQPPSASGTPGQRVTISCTGSSSNIGNNAVNWYQQLPGTAPKLLIYYDMFRPGGVPDRFSGSKSGTSASLAISGLRSEDEADYYCGAWDYSLSAYVFGGGTKLTVLG
notes: Full-length IgG, lambda
Take B1: the Kd was determined as 0.658 nM, the koff stood at 0.000162 s⁻¹ and the kon is 247000 M⁻¹ s⁻¹.

B2: #9104v-L25 (antibody, human IgG4 S228P, lambda, V domains shown)
VH: EVQLLESGGGLVQPGGSLRLSCAASGFTFSNYYMSWVRQAPGKGLEWVSGIYYGSGNIYYADSVKGRFTISRDNSKNTLYLQMNSLRAEDTAVYYCARDTPGFDYWGQGTLVTVSS
VL: QSVLTQPPSASGTPGQRVTISCTGSSSNIGNNAVNWYQQLPGTAPKLLIYYDSFPASGVPDRFSGSKSGTSASLAISGLRSEDEADYYCGAWDYSLSAYVFGGGTKLTVLG
notes: Full-length IgG, lambda
Regarding B2, the Kd was determined as 0.882 nM, the off-rate (koff) was 0.000259 s⁻¹ and the kon turned out to be 294000 M⁻¹ s⁻¹.

B3: #9104v-L38 (antibody, human IgG4 S228P, lambda, V domains shown)
VH: EVQLLESGGGLVQPGGSLRLSCAASGFTFSNYYMSWVRQAPGKGLEWVSGIYYGSGNIYYADSVKGRFTISRDNSKNTLYLQMNSLRAEDTAVYYCARDTPGFDYWGQGTLVTVSS
VL: QSVLTQPPSASGTPGQRVTISCTGSSSNIGNNAVNWYQQLPGTAPKLLIYYDSYRPFGVPDRFSGSKSGTSASLAISGLRSEDEADYYCGAWDYSLSAYVFGGGTKLTVLG
notes: Full-length IgG, lambda
With B3, the Kd is 1.8 nM, the koff stood at 0.000343 s⁻¹ and the kon was 191000 M⁻¹ s⁻¹.

B4: #9104v-L49 (antibody, human IgG4 S228P, lambda, V domains shown)
VH: EVQLLESGGGLVQPGGSLRLSCAASGFTFSNYYMSWVRQAPGKGLEWVSGIYYGSGNIYYADSVKGRFTISRDNSKNTLYLQMNSLRAEDTAVYYCARDTPGFDYWGQGTLVTVSS
VL: QSVLTQPPSASGTPGQRVTISCTGSSSNIGNNAVNWYQQLPGTAPKLLIYYDTFRPTGVPDRFSGSKSGTSASLAISGLRSEDEADYYCGAWDYSLSAYVFGGGTKLTVLG
notes: Full-length IgG, lambda
In the case of B4, the Kd was 0.785 nM, the off-rate (koff) was 0.000225 s⁻¹ and the kon is 286000 M⁻¹ s⁻¹.

B5: #9104v-L34 (antibody, human IgG4 S228P, lambda, V domains shown)
VH: EVQLLESGGGLVQPGGSLRLSCAASGFTFSNYYMSWVRQAPGKGLEWVSGIYYGSGNIYYADSVKGRFTISRDNSKNTLYLQMNSLRAEDTAVYYCARDTPGFDYWGQGTLVTVSS
VL: QSVLTQPPSASGTPGQRVTISCTGSSSNIGNNAVNWYQQLPGTAPKLLIYYDSYQASGVPDRFSGSKSGTSASLAISGLRSEDEADYYCGAWDYSLSAYVFGGGTKLTVLG
notes: Full-length IgG, lambda
On to B5, for which the Kd came to 1.61 nM, the koff was determined as 0.000493 s⁻¹ and the kon worked out at 306000 M⁻¹ s⁻¹.

B6: #9104v-L46 (antibody, human IgG4 S228P, lambda, V domains shown)
VH: EVQLLESGGGLVQPGGSLRLSCAASGFTFSNYYMSWVRQAPGKGLEWVSGIYYGSGNIYYADSVKGRFTISRDNSKNTLYLQMNSLRAEDTAVYYCARDTPGFDYWGQGTLVTVSS
VL: QSVLTQPPSASGTPGQRVTISCTGSSSNIGNNAVNWYQQLPGTAPKLLIYYDSYRSWGVPDRFSGSKSGTSASLAISGLRSEDEADYYCGAWDYSLSAYVFGGGTKLTVLG
notes: Full-length IgG, lambda
With B6, the Kd amounted to 0.88 nM, the koff turned out to be 0.000258 s⁻¹ and the kon was determined as 293000 M⁻¹ s⁻¹.

B7: #9104v-L21 (antibody, human IgG4 S228P, lambda, V domains shown)
VH: EVQLLESGGGLVQPGGSLRLSCAASGFTFSNYYMSWVRQAPGKGLEWVSGIYYGSGNIYYADSVKGRFTISRDNSKNTLYLQMNSLRAEDTAVYYCARDTPGFDYWGQGTLVTVSS
VL: QSVLTQPPSASGTPGQRVTISCTGSSSNIGNNAVNWYQQLPGTAPKLLIYYDMFRPNGVPDRFSGSKSGTSASLAISGLRSEDEADYYCGAWDYSLSAYVFGGGTKLTVLG
notes: Full-length IgG, lambda
B7: the Kd is 0.556 nM, the koff was found to be 0.000135 s⁻¹ and the kon amounted to 243000 M⁻¹ s⁻¹.

B8: #9104v-L47 (antibody, human IgG4 S228P, lambda, V domains shown)
VH: EVQLLESGGGLVQPGGSLRLSCAASGFTFSNYYMSWVRQAPGKGLEWVSGIYYGSGNIYYADSVKGRFTISRDNSKNTLYLQMNSLRAEDTAVYYCARDTPGFDYWGQGTLVTVSS
VL: QSVLTQPPSASGTPGQRVTISCTGSSSNIGNNAVNWYQQLPGTAPKLLIYYDSYTPSGVPDRFSGSKSGTSASLAISGLRSEDEADYYCGAWDYSLSAYVFGGGTKLTVLG
notes: Full-length IgG, lambda
As for B8, the Kd amounted to 1.41 nM, the koff was 0.000415 s⁻¹ and the kon worked out at 294000 M⁻¹ s⁻¹.

B9: #9104v-L23 (antibody, human IgG4 S228P, lambda, V domains shown)
VH: EVQLLESGGGLVQPGGSLRLSCAASGFTFSNYYMSWVRQAPGKGLEWVSGIYYGSGNIYYADSVKGRFTISRDNSKNTLYLQMNSLRAEDTAVYYCARDTPGFDYWGQGTLVTVSS
VL: QSVLTQPPSASGTPGQRVTISCTGSSSNIGNNAVNWYQQLPGTAPKLLIYYDQFRPSGVPDRFSGSKSGTSASLAISGLRSEDEADYYCGAWDYSLSAYVFGGGTKLTVLG
notes: Full-length IgG, lambda
As to B9, the Kd is 0.817 nM, the koff came to 0.000185 s⁻¹ and the kon is 226000 M⁻¹ s⁻¹.

B10: #9104v-L27 (antibody, human IgG4 S228P, lambda, V domains shown)
VH: EVQLLESGGGLVQPGGSLRLSCAASGFTFSNYYMSWVRQAPGKGLEWVSGIYYGSGNIYYADSVKGRFTISRDNSKNTLYLQMNSLRAEDTAVYYCARDTPGFDYWGQGTLVTVSS
VL: QSVLTQPPSASGTPGQRVTISCTGSSSNIGNNAVNWYQQLPGTAPKLLIYYDSFRQSGVPDRFSGSKSGTSASLAISGLRSEDEADYYCGAWDYSLSAYVFGGGTKLTVLG
notes: Full-length IgG, lambda
As to B10, the dissociation constant (Kd) is 1.02 nM, the koff is 0.000355 s⁻¹ and the kon is 348000 M⁻¹ s⁻¹.

B11: #9104v-L37 (antibody, human IgG4 S228P, lambda, V domains shown)
VH: EVQLLESGGGLVQPGGSLRLSCAASGFTFSNYYMSWVRQAPGKGLEWVSGIYYGSGNIYYADSVKGRFTISRDNSKNTLYLQMNSLRAEDTAVYYCARDTPGFDYWGQGTLVTVSS
VL: QSVLTQPPSASGTPGQRVTISCTGSSSNIGNNAVNWYQQLPGTAPKLLIYYDSYRASGVPDRFSGSKSGTSASLAISGLRSEDEADYYCGAWDYSLSAYVFGGGTKLTVLG
notes: Full-length IgG, lambda
For B11, the Kd was found to be 1.27 nM, the koff is 0.000327 s⁻¹ and the kon was found to be 259000 M⁻¹ s⁻¹.

B12: #9104v-L33 (antibody, human IgG4 S228P, lambda, V domains shown)
VH: EVQLLESGGGLVQPGGSLRLSCAASGFTFSNYYMSWVRQAPGKGLEWVSGIYYGSGNIYYADSVKGRFTISRDNSKNTLYLQMNSLRAEDTAVYYCARDTPGFDYWGQGTLVTVSS
VL: QSVLTQPPSASGTPGQRVTISCTGSSSNIGNNAVNWYQQLPGTAPKLLIYYDSYPPYGVPDRFSGSKSGTSASLAISGLRSEDEADYYCGAWDYSLSAYVFGGGTKLTVLG
notes: Full-length IgG, lambda
Turning to B12, the Kd is 1.27 nM, the koff worked out at 0.000289 s⁻¹ and the kon turned out to be 227000 M⁻¹ s⁻¹.

B13: #9104v-L28 (antibody, human IgG4 S228P, lambda, V domains shown)
VH: EVQLLESGGGLVQPGGSLRLSCAASGFTFSNYYMSWVRQAPGKGLEWVSGIYYGSGNIYYADSVKGRFTISRDNSKNTLYLQMNSLRAEDTAVYYCARDTPGFDYWGQGTLVTVSS
VL: QSVLTQPPSASGTPGQRVTISCTGSSSNIGNNAVNWYQQLPGTAPKLLIYYDSFRRSGVPDRFSGSKSGTSASLAISGLRSEDEADYYCGAWDYSLSAYVFGGGTKLTVLG
notes: Full-length IgG, lambda
On to B13, for which the Kd amounted to 1.05 nM, the koff was found to be 0.000254 s⁻¹ and the kon turned out to be 241000 M⁻¹ s⁻¹.

B14: #9104v-L32 (antibody, human IgG4 S228P, lambda, V domains shown)
VH: EVQLLESGGGLVQPGGSLRLSCAASGFTFSNYYMSWVRQAPGKGLEWVSGIYYGSGNIYYADSVKGRFTISRDNSKNTLYLQMNSLRAEDTAVYYCARDTPGFDYWGQGTLVTVSS
VL: QSVLTQPPSASGTPGQRVTISCTGSSSNIGNNAVNWYQQLPGTAPKLLIYYDSYLPSGVPDRFSGSKSGTSASLAISGLRSEDEADYYCGAWDYSLSAYVFGGGTKLTVLG
notes: Full-length IgG, lambda
For the molecule B14, the Kd is 1.37 nM, the koff is 0.000439 s⁻¹ and the kon was determined as 321000 M⁻¹ s⁻¹.

B15: #9104v-L39 (antibody, human IgG4 S228P, lambda, V domains shown)
VH: EVQLLESGGGLVQPGGSLRLSCAASGFTFSNYYMSWVRQAPGKGLEWVSGIYYGSGNIYYADSVKGRFTISRDNSKNTLYLQMNSLRAEDTAVYYCARDTPGFDYWGQGTLVTVSS
VL: QSVLTQPPSASGTPGQRVTISCTGSSSNIGNNAVNWYQQLPGTAPKLLIYYDSYRPGGVPDRFSGSKSGTSASLAISGLRSEDEADYYCGAWDYSLSAYVFGGGTKLTVLG
notes: Full-length IgG, lambda
As to B15, the Kd was 1.52 nM, the koff amounted to 0.000443 s⁻¹ and the kon came out at 291000 M⁻¹ s⁻¹.

B16: #9104v-L29 (antibody, human IgG4 S228P, lambda, V domains shown)
VH: EVQLLESGGGLVQPGGSLRLSCAASGFTFSNYYMSWVRQAPGKGLEWVSGIYYGSGNIYYADSVKGRFTISRDNSKNTLYLQMNSLRAEDTAVYYCARDTPGFDYWGQGTLVTVSS
VL: QSVLTQPPSASGTPGQRVTISCTGSSSNIGNNAVNWYQQLPGTAPKLLIYYDSFRSTGVPDRFSGSKSGTSASLAISGLRSEDEADYYCGAWDYSLSAYVFGGGTKLTVLG
notes: Full-length IgG, lambda
Take B16: the Kd was determined as 1.07 nM, the koff came to 0.000292 s⁻¹ and the kon was 272000 M⁻¹ s⁻¹.
